Paper doi:10.1101/2020.10.06.328112
Read-outs that look alike come from different tables or passages of the source.

Assays:
[1] = target: Recombinant human cyclophilin A (human) (UniProt P62937); test: native MS
[2] = target: Recombinant human cyclophilin A (human) (UniProt P62937); test: native MS; remark: listed apart in the source

“Recombinant human cyclophilin A (from UniProt P62937 1-165) (enzyme)” was tested, and the stoichiometry N [1] was 2 and the stoichiometry N [2] was 2.
